{"source": "paper PMC7592630", "about": "(FASEB journal : official publication of the Federation of …, 2019)", "proteins": {"B1": {"name": "C213Y Prph2 (natural protein, UniProt P15499 1-346, looked up)", "chain": "MALLKVKFDQKKRVKLAQGLWLMNWLSVLAGIVLFSLGLFLKIELRKRSEVMNNSESHFVPNSLIGVGVLSCVFNSLAGKICYDALDPAKYAKWKPWLKPYLAVCIFFNVILFLVALCCFLLRGSLESTLAYGLKNGMKYYRDTDTPGRCFMKKTIDMLQIEFKCCGNNGFRDWFEIQWISNRYLDFSSKEVKDRIKSNVDGRYLVDGVPFSYCNPSSPRPCIQYQLTNNSAHYSYDHQTEELNLWLRGCRAALLNYYSSLMNSMGVVTLLVWLFEVSITAGLRYLHTALESVSNPEDPECESEGWLLEKSVPETWKAFLESFKKLGKSNQVEAEGADAGPAPEAG", "modifications": "N-linked glycan (the paper shows that the mutant is glycosylated; Asn229 is the site in Prph2)"}}, "target": "the molecule itself", "test": "sucrose gradient velocity sedimentation", "data": [{"protein": "B1", "values": [{"measurement": "stoichiometry N", "result": 4}]}]}
